In patent publication US11274309B2 (dated 2022):

Legend:
peptide on HLA-A*02:01 = biological target: T1, peptide on HLA-A*02:01 (human); assay: activation reporter or marker
T1 peptide: VYALPLKML

peptide on HLA-A*24:02 = biological target: T2, peptide on HLA-A*24:02 (human); assay: activation reporter or marker
T2 peptide: VYALPLKML

B1: JG9-TCR (TCR, V domains shown)
Valpha: GQQLNQSPQSMFIQEGEDVSMNCTSSSIFNTWLWYKQEPGEGPVLLIALYKAGELTSNGRLTAQFGITRKDSFLNISASIPSDVGIYFCAGPMKTSYDKVIFGPGTSLSVIP
Vbeta: DAGVIQSPRHEVTEMGQEVTLRCKPISGHDYLFWYRQTMMRGLELLIYFNNNVPIDDSGMPEDRFSAKMPNASFSTLKIQPSEPRDSAVYFCASSSANYGYTFGSGTRLTVV
B1: no recognition (peptide on HLA-A*02:01); no recognition (peptide on HLA-A*24:02).
